The data set deals with O=C(O)C(=O)/C=C/c1ccccc1O. Put plainly: purified protein. The settings on record: 50 mM Na2HPO4 pH 7.2, 22 °C.
On to “NahE (His-tag NahE) (Pseudomonas putida; N157A)”, for which the Michaelis constant (Km) was found to be 8 ± 1 µM, the catalytic constant (kcat) stood at 0.13 s⁻¹ and the kcat/Km amounted to 16000 M⁻¹ s⁻¹.

On to “NahE (His-tag NahE) (Pseudomonas putida; N157L)”, for which the Km amounted to 60 ± 10 µM, the kcat is 0.6 s⁻¹ and the kcat/Km was 10000 M⁻¹ s⁻¹.

Regarding “NahE (His-tag NahE) (Pseudomonas putida; T65S)”, the Km came to 1.7 ± 0.3 µM, the catalytic constant (kcat) is 0.0085 s⁻¹ and the kcat/Km is 5000 M⁻¹ s⁻¹.

For the substance “NahE (His-tag NahE) (Pseudomonas putida; T65V)”, the Km worked out at 21 ± 8 µM, the turnover number (kcat) was found to be 0.004 s⁻¹ and the kcat/Km came out at 190 M⁻¹ s⁻¹.

On to “NahE (His-tag NahE) (Pseudomonas putida; W128F)”, for which the Michaelis constant (Km) stood at 8 ± 2 µM, the kcat amounted to 8 s⁻¹ and the kcat/Km was 1e+06 M⁻¹ s⁻¹.

With “NahE (His-tag NahE) (Pseudomonas putida; W128Y)”, the Km is 7 ± 1 µM, the catalytic constant (kcat) is 5 s⁻¹ and the specificity constant (kcat/Km) turned out to be 700000 M⁻¹ s⁻¹.

As to “NahE (His-tag NahE) (Pseudomonas putida; Y155F)”, the Michaelis-Menten constant (Km) was 4 ± 1 µM, the kcat was determined as 0.004 s⁻¹ and the kcat/Km was determined as 1000 M⁻¹ s⁻¹.

These data come from PMC9762252.
